Measured values taken from the supplement of paper PMC9170038.

System: MS2 coat protein
Assay: apparent KD of MS2 coat protein; designed switch direction (-1 OFF switch, 1 ON switch): 1; higher = weaker reporter binding
How it was run: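 The apparent KD reported per design is the median over clusters of curve fits to normalised cluster fluorescence. The RNA switches were transcribed on Illumina chips by stalled E. coli RNA polymerase. SNAP-549-labelled MS2 coat protein was titrated from 0.7 or 1.5 nM, doubling up to 3 µM, in Tris-HCl pH 7.5 buffer containing KCl, MgCl2, BSA, DTT, tRNA and Tween-20, with no input, 200 uM small-molecule ligand, or an oligonucleotide input.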

[1] = input ligand: microRNA oligo, concentration not stated
[2] = Eterna round: R95, input ligand: FMN 200 uM
[3] = Eterna round: R95, input ligand: microRNA oligo, concentration not stated
[4] = Eterna round: R95, input ligand: none

Row | Sequence | apparent KD of MS2 coat protein (input ligand: FMN 200 uM) | apparent KD of MS2 coat protein [1] | apparent KD of MS2 coat protein (input ligand: none) | apparent KD of MS2 coat protein [2] | apparent KD of MS2 coat protein [3] | apparent KD of MS2 coat protein [4]
1 | CUAGGAGGAUGAGGAUAUGCAGAGGAUCACCCUGUAGAAGGCAAGAGAUGAGGAUAUGCAGAGGAUCACCCUGUAGAAGGCAAC [pwkr ssNG DX.1] (Eterna round: R96, puzzle: Same State NG 1) | 0.307 µM | 0.0865 µM | 0.122 µM | – | – | –
2 | CUAUCUACAGGUGUCUUUGCUCGUUUUAUACAUGAGGAUCACCCAUGUUAUAGCCCGGUGCUUGCGCUGGGCUGAUU [JL ViennaUCT Tearor mod 7] (puzzle: Sensor for hsa-mir-208a) | – | – | – | 0.1 µM | 0.0155 µM | 0.0953 µM
3 | CUGAGAUGUCAAGGAUAUCACGUCGAUUAGACGUGAGAAGGUGAUCAGUACAUGAGGAUCACCCAUGUGUUACAUGGAACUCAG [Brourd's SSNG1/1-A2 mod 9] (Eterna round: R96, puzzle: Same State NG 1) | 0.868 µM | 0.102 µM | 0.571 µM | – | – | –
4 | CUGAGCGAUCAAGGAUAUCACGUCGAUUAGACGUGAGAAGGUGAUCCAUACAUGAGGAUCACCCAUGUAUAACAUGAAGCUCAG [SSNG1/8-A2] (Eterna round: R96, puzzle: Same State NG 1) | 0.414 µM | 0.507 µM | 0.861 µM | – | – | –
5 | CUGAGCGAUCGAGGAUAUCACGUCGUUUAGACGUGAGAAGGCGAUCAUAACAUGAGGAUCACCCAUGUAUUACAUGAAGCUCAG [SSNG1/4-A3] (Eterna round: R96, puzzle: Same State NG 1) | 0.0168 µM | 0.0149 µM | 0.0192 µM | – | – | –
6 | CUGUAUCACGGAGGAUAUGGGCUGAGACCAGGGCAACCCUGGUCAACAUGAGGAUCACCCAUGUCCCAGAAGGCCGCGAUGCUA [Geisorqu] (Eterna round: R96, puzzle: Same State NG 2) | 0.0238 µM | 0.0829 µM | 0.137 µM | – | – | –
7 | CUGUCUACAGGUGUCUUUGCUCGUUUUAUACAUGAGGAUCACCCAUGUUGUAGCCCGGUGCUUGCGCUGGGCUGGUU [JL ViennaUCT Tearor mod 9] (puzzle: Sensor for hsa-mir-208a) | – | – | – | 0.066 µM | 0.0156 µM | 0.0727 µM
8 | GAAGGAUGAGCGUAGGAUAUAGGAGGAGUGACAUGAGGAUCACCCAUGUAGUAGGAGGGAGGGUACUAGAAGGACGAGGAAGAAG [JR_SS2_Sub067] (puzzle: Same State 2) | – | – | – | 0.0397 µM | 0.0493 µM | 0.0515 µM
9 | GAAGGAUGAGCGUAGGAUAUAGGAGGAGUGACAUGAGGAUCACCCAUGUGGUAGGAGGGAGGGUACUAGAAGGACGAGGAAGAGG [JR_SS2_Sub069] (Eterna round: R96, puzzle: Same State 2) | 0.102 µM | 0.0497 µM | 0.084 µM | – | – | –
10 | GAAGGAUGAGCGUAGGAUAUAGGAGGAGUGACAUGAGGAUCACCCAUGUGGUAGGAGGGAGGGUACUAGAAGGACGAGGAAGAGG [JR_SS2_Sub069] (puzzle: Same State 2) | – | – | – | 0.216 µM | 0.106 µM | 0.161 µM
11 | GACAAUCUAUCUCAGGAUAUCAUGUCAAAGACAUGAGGAUCACCCAUGUACCAGGAAACUGGUUAUGAGAAGGGAGAUAGAUUGG [Mat - Same State 2 - Mod - D27] (puzzle: Same State 2) | – | – | – | 0.179 µM | 0.0157 µM | 5.66 µM
12 | GAGAAUCUAUCUCAGGAUAUCAUGUCAAAGACAUGAGGAUCACCCAUGUACCAGGAAACUGGUUAUGAGAAGGGAGAUAGAUUCG [Mat - Same State 2 - Mod - D36] (puzzle: Same State 2) | – | – | – | 0.0861 µM | 0.111 µM | 0.0401 µM
13 | GAGAGACAUGAGGAUCACCCAUGUAGAAUAGAACAAGGAUAUGUGGAAGGCGGAGGAGAGACAGAAGGUGUAGGAA [JR_SS1_Sub054] (puzzle: Same State 1) | – | – | – | 0.0625 µM | 0.0768 µM | 0.0849 µM
14 | GAGAGAGGAAGCGAGGAUAUCGUGUGGAGUACAUGAGGAUCACCCAUGUUGUAGGUAGAGGUAGGCGAGAAGGCGCAGGAGAGGU [JR_SS2_Sub097] (puzzle: Same State 2) | – | – | – | 0.034 µM | 0.0415 µM | 0.0581 µM
15 | GAGAGAGGGCGAGGAUAUUCGGUGAUAAUGAUGGAAGAAGGCGCUGACAUGAGGAUCACCCAUGUGGGAAUAAUCCAGAGAGAG [Parity 15 - Jieux - Same State NG 1] (Eterna round: R96, puzzle: Same State NG 1) | 0.494 µM | 0.13 µM | 0.237 µM | – | – | –
16 | GAGGGACAGACCAACAUGAGGAUCACCCAUGUCCUCGCAGUUCAGGAUAUCUGGAGGAAGAAGAAAGAGAAGGGAAGGUGAACC [AK SSNG3-V2-35] (Eterna round: R96, puzzle: Same State NG 3) | 0.312 µM | 0.0653 µM | 0.12 µM | – | – | –
17 | GAGUAGUUGAAAGGAUAUUGAUUGUUAUAGGAUCAAGAAGGUUCUAACAUGAGGAUCACCCAUGUAGGACUAUUCCUGUGUAUC [Parity 83 - Jieux - Same State NG 1] (Eterna round: R96, puzzle: Same State NG 1) | 0.011 µM | 0.00878 µM | 0.0125 µM | – | – | –
18 | GAGUAGUUGGGAGGAUAUCGAUUGUUAUAGAAUCGAGAAGGUCCUAACAUGAGGAUCACCCAUGUAGGACUAUUCCUGUGUAUC [Parity 75 - Jieux - Same State NG 1] (Eterna round: R96, puzzle: Same State NG 1) | 0.00981 µM | 0.0075 µM | 0.0106 µM | – | – | –
19 | GAGUGGCAGUUAGGAUAUAUAGUGAUAAUGACAAUAGAAGGAACAGACAUGAGGAUCACCCAUGUAGGACUAAUCCAGAGAGAG [Parity 36 - Jieux - Same State NG 1] (Eterna round: R96, puzzle: Same State NG 1) | 0.0321 µM | 0.0225 µM | 0.0302 µM | – | – | –
20 | GAGUGGUGGAAAGGAUAUGCAUUGUUAUUCACUGUAGAAGGUUCUAACAUGAGGAUCACCCAUGUAGGACUAUUCCUGUGUUUU [Parity 59 - Jieux - Same State NG 1] (Eterna round: R96, puzzle: Same State NG 1) | – | 0.0102 µM | – | – | – | –
21 | GAGUGUGAAUAAGGAUAUAUGAGAGAGUGAGUAAUAGAAGGUAUACAAACAUGAGACAUGAGGAUCACCCAUGUAUCACCCAUG [Something that seems to work] (Eterna round: R96, puzzle: Same State NG 1) | – | 0.0145 µM | – | – | – | –
22 | GAUCGUUUGAUAGGAUAUCGCUAUACAUGAGGAUCACCCAUGUUUACCACGCUGGUUUUUCGUACCGAGAAGGAUUCUGAUGAU [JL JR sub007 mod 5] (Eterna round: R96, puzzle: Same State NG 2) | 0.0314 µM | 0.0244 µM | 0.0354 µM | – | – | –
23 | GCAACUCGUAGAGGAUAUGUCCAGCAAGUAUCACAUGAGGAUCACCCAUGUUCAGCUCUACACCUGCAGAAGGCUAUUAGUGCA [Eternabot solution 46] (Eterna round: R96, puzzle: Same State NG 2) | 0.0158 µM | 0.0136 µM | 0.0172 µM | – | – | –
24 | GCACUCCUAGGAGCUGCGACAUGAGGAUCACCCAUGUAAUCACAGGAUAUGCGAGUCCGAAUUUUGCAGAAGGGUGAUAAGAAC [Biesanarre] (Eterna round: R96, puzzle: Same State NG 3) | 0.404 µM | 0.0523 µM | 0.0457 µM | – | – | –
25 | GCAGAACAUGAGGAUCACCCAUGUCUCAAAUAUUGAGGAUAUGGACACGGUAUAUCCGAACCAGAAGGCGAACUGC [SS1 Teenbexe 18] (puzzle: Same State 1) | – | – | – | 0.0661 µM | 0.0743 µM | 0.0533 µM
26 | GCAGUACAUGAGGAUCACCCAUGUCUCUAAAGUCGAGGAUAUGGGCAGGUUAUAUCCGAACCAGAAGGCGAGCUGC [SS1 Teenbexe 12] (puzzle: Same State 1) | – | – | – | 0.0815 µM | 0.301 µM | 0.339 µM
27 | GCAGUGGCGGUAGGAUAUCUAGGAUAUGGGAAAGACUAAGUCUGUAGGUCACCUAACCCAGAAGGAGAGAAGGACCCUGUAAGG [pwkr ssNG2 2FMN + F9.21] (Eterna round: R96, puzzle: Same State NG 2) | 0.348 µM | 0.0747 µM | 0.222 µM | – | – | –
28 | GCCAACUCAUGAGGAUAUGGCACCUUAAUGGUGCCAGAAGGCAUGUCUAUUGACAUGAGGAUCACCCAUGUAUUAUUGUUGGCA [Fiskers NG1ss - 25] (Eterna round: R96, puzzle: Same State NG 1) | 0.1 µM | 0.241 µM | 0.821 µM | – | – | –
29 | GCCGCACAUGAGGAUCACCCAUGUAAUUACAUGGGAGGAUAUCAGUGCUCGAAAGAGCACUGAGAAGGCCUGUGGC [SS1 - Omei A v2] (puzzle: Same State 1) | – | – | – | 0.399 µM | 0.0319 µM | 0.039 µM
30 | GCCGCGUUUCGCGCCUACAUGAGGAUCACCCAUGUAUGUCGGCAGGAUAUCGUUUGCUUUGCAAACGAGAAGGGCUGUUGUGGC [salish99_SSNG3_R04_011] (Eterna round: R96, puzzle: Same State NG 3) | 0.0134 µM | 0.00904 µM | 0.0144 µM | – | – | –
